# Assays:
# [1] = target: syt2_rat Syt2 (UniProt P29101)
# [2] = target: syt2_rat Syt2 (UniProt P29101); remark: listed apart in the source
# Sequence of syt2_rat Syt2 (P29101 whole entry): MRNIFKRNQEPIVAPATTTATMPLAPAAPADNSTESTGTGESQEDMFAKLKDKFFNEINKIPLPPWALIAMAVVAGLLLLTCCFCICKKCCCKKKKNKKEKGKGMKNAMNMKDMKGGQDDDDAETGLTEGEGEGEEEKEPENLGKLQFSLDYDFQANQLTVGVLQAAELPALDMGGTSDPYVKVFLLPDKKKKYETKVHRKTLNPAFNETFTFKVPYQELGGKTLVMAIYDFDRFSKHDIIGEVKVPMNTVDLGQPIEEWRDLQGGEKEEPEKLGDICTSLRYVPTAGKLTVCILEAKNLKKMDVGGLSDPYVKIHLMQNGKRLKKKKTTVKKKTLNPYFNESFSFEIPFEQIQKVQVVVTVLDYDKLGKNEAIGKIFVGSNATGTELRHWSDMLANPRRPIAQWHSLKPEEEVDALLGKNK
Substance,effect of a mutation on the interaction [1],effect of a mutation on the interaction [2]
"Serine/threonine-protein kinase WNK1 (Rattus norvegicus (Rat)), Q9JIH7 V318D",decreasing interaction,–
"Serine/threonine-protein kinase WNK1 (Rattus norvegicus (Rat)), Q9JIH7 V318E",–,decreasing interaction
